Assay [1] has as its target T1, consensus S-HBs protein of HBV genotype F (ConsHBAg_F) (hepatitis B virus genotype F (consensus), UniProt Q05496 175-400).
T1 construct: also called genotype F S-HBs
Briefly: flow cytometry on cells expressing genotype-specific S-HBs. A general note: A flow cytometer gives signals particle by particle.

Assay [2] deals with T2, consensus S-HBs protein of HBV genotype H (ConsHBAg_H) (hepatitis B virus genotype H (consensus), UniProt Q8JMZ6 175-400).
T2 construct: also called genotype H S-HBs
The description is as above.

Assay [3] concerns the target genotype D S-HBs mutant protein Y134V (hepatitis B virus genotype D, UniProt P03138 164-389). Briefly: flow cytometry, S-HBs-transfected 293-F cells.
For assay [4], the target named is T3, consensus S-HBs protein of HBV genotype E (ConsHBAg_E) (hepatitis B virus genotype E (consensus), UniProt Q69603 174-399).
T3 construct: also called genotype E S-HBs
T3 chain: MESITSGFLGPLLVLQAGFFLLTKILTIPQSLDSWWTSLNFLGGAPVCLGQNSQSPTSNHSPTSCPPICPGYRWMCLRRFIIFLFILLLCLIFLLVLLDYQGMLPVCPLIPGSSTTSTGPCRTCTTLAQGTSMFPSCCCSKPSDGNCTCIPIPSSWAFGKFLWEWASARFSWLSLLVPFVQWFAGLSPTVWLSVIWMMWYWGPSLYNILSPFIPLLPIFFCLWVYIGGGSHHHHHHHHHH
The assay can be described thus: flow cytometry, S-HBs-transfected 293-F cells.

Assay [5] has as its target T4, consensus S-HBs protein of HBV genotype G (ConsHBAg_G) (hepatitis B virus genotype G (consensus), UniProt Q9IBI3 174-399).
T4 construct: also called genotype G S-HBs
Briefly: flow cytometry, S-HBs-transfected 293-F cells.

Assay [6] has as its target T5, consensus S-HBs protein of HBV genotype B (ConsHBAg_B) (hepatitis B virus genotype B (consensus), UniProt Q9PWW3 175-400).
T5 construct: also called genotype B S-HBs
Briefly: flow cytometry, S-HBs-transfected 293-F cells.

Assay [7] concerns the target T6, consensus S-HBs protein of HBV genotype I (ConsHBAg_I) (hepatitis B virus genotype I (consensus), UniProt P31873 175-400).
T6 construct: also called genotype I S-HBs
T6 chain: T3 chain with S3N, R122K, L127P, T131N, F134Y, S140T, S143T, G159A, F161Y, A184V
Briefly: flow cytometry, S-HBs-transfected 293-F cells.

Assay [8] addresses T7, consensus S-HBs protein of HBV genotype D (ConsHBAg_D) (hepatitis B virus genotype D (consensus), UniProt P03138 164-389).
T7 construct: also called genotype D S-HBs; ConsD S-HBs
The assay can be described thus: flow cytometry, S-HBs-transfected 293-F cells.

For assay [9], the target named is genotype D S-HBs mutant protein N146S (hepatitis B virus genotype D, UniProt P03138 164-389). Briefly: flow cytometry, S-HBs-transfected 293-F cells.
Assay [10] deals with T1, consensus S-HBs protein of HBV genotype …. Briefly: flow cytometry, S-HBs-transfected 293-F cells.
Assay [11] deals with T8, consensus S-HBs protein of HBV genotype A (ConsHBAg_A) (hepatitis B virus genotype A (consensus), UniProt P03141 175-400).
T8 construct: also called genotype A S-HBs
The assay can be described thus: flow cytometry, S-HBs-transfected 293-F cells.

For assay [12], the target named is genotype D S-HBs mutant protein M133T (hepatitis B virus genotype D, UniProt P03138 164-389). The assay can be described thus: flow cytometry, S-HBs-transfected 293-F cells.
For assay [13], the target named is T9, consensus S-HBs protein of HBV genotype C (ConsHBAg_C) (hepatitis B virus genotype C (consensus), UniProt P03140 175-400).
T9 construct: also called genotype C S-HBs
Briefly: flow cytometry, S-HBs-transfected 293-F cells.

Assay [14] addresses genotype D S-HBs mutant protein G145R (hepatitis B virus genotype D, UniProt P03138 164-389). The assay can be described thus: flow cytometry, S-HBs-transfected 293-F cells.
Assay [15] concerns the target T2, consensus S-HBs protein of HBV genotype …. The assay can be described thus: flow cytometry, S-HBs-transfected 293-F cells.
The target of assay [16] is genotype D S-HBs mutant protein T126A (hepatitis B virus genotype D, UniProt P03138 164-389). Briefly: flow cytometry, S-HBs-transfected 293-F cells.
Assay [17] concerns the target HBV genotype D viruses (produced in HepG2.2.15 cell culture supernatant) (hepatitis B virus genotype D). Briefly: cell-based or functional assay.
In assay [18] the target is T10, Adw S-HBs protein (adw HBsAg particles, GenHevac (Adw)) (hepatitis B virus, adw subtype).
T10 construct: also called GenHevac-B
Briefly: ELISA on recombinant HBV vaccine particles. Background: An ELISA detects its analyte on a solid surface through an enzyme-linked reagent.

Assay [19] has as its target T11, Ayw S-HBs protein (ayw HBsAg particles, Engerix-B (Ayw)) (hepatitis B virus, ayw subtype). The assay can be described thus: ELISA on recombinant HBV vaccine particles.
For assay [20], the target named is T10, Adw S-HBs protein (adw HBsAg particles, …). Briefly: ELISA, AUC of binding curve. More on the design: unit not given beside the values.
Assay [21] concerns the target T11, Ayw S-HBs protein (ayw HBsAg particles, …). The assay can be described thus: ELISA, AUC of binding curve. More on the design: unit not given beside the values.
Assay [22] addresses T4, consensus S-HBs protein of HBV genotype …. Briefly: flow cytometry on cells expressing genotype-specific S-HBs.
The target of assay [23] is T5, consensus S-HBs protein of HBV genotype …. The assay is described as above.
The target of assay [24] is T6, consensus S-HBs protein of HBV genotype …. Described as above.
Assay [25] addresses T8, consensus S-HBs protein of HBV genotype …. The description is as above.
Assay [26] concerns the target T9, consensus S-HBs protein of HBV genotype …. The assay is described as above.

Changes are numbered by the printed parent chain.

We go through two molecules from US20230340081A1 (Hoffmann-La Roche, published 2023).

T2 sequence (Q8JMZ6 175-400, tags left off): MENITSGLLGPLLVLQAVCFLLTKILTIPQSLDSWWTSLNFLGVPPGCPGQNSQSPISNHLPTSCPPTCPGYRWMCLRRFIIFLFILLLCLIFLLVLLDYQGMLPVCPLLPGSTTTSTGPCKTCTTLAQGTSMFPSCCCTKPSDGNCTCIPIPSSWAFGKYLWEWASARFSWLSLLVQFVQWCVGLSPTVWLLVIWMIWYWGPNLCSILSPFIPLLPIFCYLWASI
T1 sequence (Q05496 175-400, tags left off): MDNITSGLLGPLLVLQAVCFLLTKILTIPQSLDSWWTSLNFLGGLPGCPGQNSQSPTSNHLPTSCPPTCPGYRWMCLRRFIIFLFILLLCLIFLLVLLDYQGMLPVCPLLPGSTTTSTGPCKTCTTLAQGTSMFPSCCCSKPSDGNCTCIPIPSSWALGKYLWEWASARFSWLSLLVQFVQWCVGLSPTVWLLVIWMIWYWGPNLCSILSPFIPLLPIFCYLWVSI

B1: Bc4.204 (antibody, human IgG1, lambda)
heavy: not shown
light: QSALTQPRSVSGSPGQSVTISCIGTNSDFGRYDYVSWYQQHPDKAPKLLIYDVSQRPSGVPDRFSGSKSGYTASLIISGLQADDEAEYFCCSYAGSFNLVFGGGTKVTVLGQPKAAPSVTLFPPSSEELQANKATLVCLISDFYPGAVTVAWKADSSPVKAGVETTTPSKQSNNKYAASSYLSLTPEQWKSHRSYSCQVTHEGSTVEKTVAPTECS
One may read the EC50 as the concentration needed to bring the measured effect to its halfway point. B1: the binding result in [1] and in assay [2] was “no binding” throughout. Also, the “% of bound S-HBs-expressing cells” value in [3] is 57%; in assay [4] it was 65%; in assay [5], 71%; in assay [6], 65%; in assay [7], 58%; in assay [8], 68%. In addition, the “% of bound S-HBs-expressing cells” value was found to be 53% in assay [9]; 0% in [10]; 74% in [11]; 59% in assay [12]; 65% in [13]; 55% in assay [14]. Besides, the “% of bound S-HBs-expressing cells” value in assay [15] was found to be 1%; in assay [16] it was 60%. In addition, in [17], the “HBV-gD in vitro neutralization (IC50 µg/ml)” value was 0.000229 µg/mL. For the same molecule, the EC50 was found to be 0.0156 µg/mL in assay [18] and 0.015 µg/mL in assay [19]. Further, the “AUC (serotype binding)” value in assay [20] and in assay [21] was 36 in each case.

B2: Bv4.104 (antibody)
heavy: not shown
light: QSALTQPASVSGSPGQSITISCTGTSSDVGNYKSVSWYQHHPGKAPKFMIYEGTQRPSGVSNRFSGSKSGNTASLTISGLQAEDEAHYYCCSYAGSSTWLFGGGTKLTVLGQPKAAPSVTLFPPSSEELQANKATLVCLISDFYPGAVTVAWKADSSPVKAGVETTTPSKQSNNKYAASSYLSLTPEQWKSHRSYSCQVTHEGSTVEKTVAPTECS
notes: also called PIBv4.104
In the case of B2, the binding result in assay [22], in assay [23], in [24], in assay [1], in [25] and in assay [26] was “no binding” in each case. For the same molecule, the binding result in assay [2] is recorded as “no binding”. Besides, the “% of bound S-HBs-expressing cells” value stood at 60% in assay [3]; 73% in assay [4]; 1% in assay [5]; 1% in [6]; 1% in assay [7]; 73% in assay [8]. The “% of bound S-HBs-expressing cells” value was found to be 63% in [9]; 1% in assay [10]; 1% in assay [11]; 64% in assay [12]; 5% in assay [13]; 54% in assay [14]. Further, the “% of bound S-HBs-expressing cells” value in [15] came out at 1%; in [16] it was 64%. The EC50 in [18] was determined as 6.58 µg/mL; in assay [19] it was 0.0046 µg/mL. The “AUC (serotype binding)” value in assay [20] amounted to 7; in [21], 37.
